# B1: NRP1-33 (VHH)
# VHH: EVQLVESGGGLVQPGGSLRLSCAASGRTFSSGTMGWFRQASGKEREFVARINSDGSTNYADSVKGRFTISADNSKNTAYLQMNSLKPEDTAVYYCAKWSSSWYGYYYYGMDVWGQGTLVTVSS
# B2: NRP1-233 (antibody, IgG2, V domains shown)
# VH: EVQLLESGGGLVQPGGSLRLSCAASGFSFSTYAMTWVRQAPEKGLEWVSSIGGSGRSTYYADSVKGRFTISRDNSKNTLYLQMNSLRAEDTAVYYCARLKRGGTNLVRKATRYQFYGMDAWGQGTLVTVSS
# VL: DIQMTQSPSSLSASVGDRVTITCRASQSISSYLAWYQQKPGKAPKLLIYAGSGLQSGVPSRFSGSGSGTDFTLTISSLQPEDFATYYCQQSFTSPLTFGGGTKVEIK
# B3: NRP1-245 (antibody, IgG2, V domains shown)
# VH: EVQLLESGGGLVQPGGSLRLSCAASGLTFSRYAMSWVRQAPGKGLEWVSTISGRGGSTNYADSVKGRFTISRDNSKNTLYLQMNSLRAEDTAVYYCAKDSARFISPPRGIRIRGVVLSGFDSWGQGTLVTVSS
# VL: DIQMTQSPSSLSASVGDRVTITCRASQSISTSLNWYQQKPGKAPKLLIYATSSLQSGVPSRFSGSGSGTDFTLTISSLQPEDFATYYCQQAYSTPLTFGGGTKVEIK
# B4: NRP1-210 (antibody, IgG2, V domains shown)
# VH: EVQLLESGGGLVQPGGSLRLSCAASGFTFSSYVMAWVRQAPGKGLEWVSTISASGGTTYYADSVKGRFTISRDNSKNTLYLQMNSLRAEDTAVYYCAKVGSGWYFWGQGTLVTVSS
# VL: DIQMTQSPSSLSASVGDRVTITCRTSQSISRYLNWYQQKPGKAPKLLIYAASSLQGGVPSRFSGSGSGTDFTLTISSLQPEDFATYYCQQSYTVPITFGGGTKVEIK
# B5: NRP1-128 (antibody, IgG2, V domains shown)
# VH: EVQLLESGGGLVQPGGSLRLSCAASGFTFSRYAMNWVRQAPGKGLEWVSAISGSGGNTYYADSVKGRFTISRDNSKNTLYLQMNSLRAEDTAVYYCARVRRGGATDYWGQGTLVTVSS
# VL: DIQMTQSPSSLSASVGDRVTITCRASQDVSSGVAWYQQKPGKAPKLLIYGKNIRPSGVPSRFSGSGSGTDFTLTISSLQPEDFATYYCQQTYSPPLTFGQGTKVEIK
# B6: NRP1-18 (VHH)
# VHH: EVQLVESGGGLVQPGGSLRLSCAASGFRFSSYGMGWFRQAPGKEREFVAFISGNPSRTYYADSVKGRFTISADNSKNTAYLQMNSLKPEDTAVYYCAARPYQKYNWASASYNWGQGTLVTVSS
# B7: NRP1-11 (VHH)
# VHH: EVQLVESGGGLVQPGGSLRLSCAASGRTFTTYPMGWFRQAPGKEREFVAAITWNGASTSYADSVKGRFTISADNSKNTAYLQMNSLKPEDTAVYYCAKGGGYSGYDYDYWGQGTLVTVSS
# B8: NRP1-121 (antibody, IgG2, V domains shown)
# VH: QVQLVQSGAEVKKPGSSVKVSCKASGGTFSNYAISWVRQAPGQGLEWMGGIIPINYAQKFQGRVTITADESTSTAYMELSSLRSEDTAVYYCVRRVVGATPFDYWGQGTLVTVSS
# VL: DIQMTQSPSSLSASVGDRVTITCRASQIIRRYLNWYQQKPGKAPKLLIYPASSLQSGVPSRFSGSGSGTDFTLTISSLQPEDFATYYCQQAYSTPMFGQGTKVEIK
# B9: NRP1-82 (VHH)
# VHH: EVQLVESGGGLVQPGGSLRLSCAASGRTFNRYPMGWFRQAPGKEREWVSAINSNGNRYYYADSVKGRFTISADNSKNTAYLQMNSLKPEDTAVYYCAIHTSREIWGQGTLVTVSS
# B10: NRP1-84 (VHH)
# VHH: EVQLVESGGGLVQPGGSLRLSCAASGRTFSNYKMGWFRQAPGKEREFVARIFTDDGDSYYADSVKGRFTISADNSKNTAYLQMNSLKPEDTAVYYCAKWDGLGTLWGQGTLVTVSS
# B11: NRP1-15 (VHH)
# VHH: EVQLVESGGGLVQPGGSLRLSCAASGFTFSNYDMGWFRQAPGKEREFVAAISWSGTLTSYADSVKGRFTISADNSKNTAYLQMNSLKPEDTAVYYCARQRETGHLILYSDYYYGMDVWGQGTLVTVSS
# B12: NRP1-132 (antibody, IgG2, V domains shown)
# VH: EVQLLESGGGLVQPGGSLRLSCAASGFTFGDHGMGWVRQAPGKGLEWVSYITPKGDHTYYADSVKGRFTISRDNSKNTLYLQMNSLRAEDTAVYYCASLPKRGPRFDYWGQGTLVTVSS
# VL: DIQMTQSPSSLSASVGDRVTITCRASQNIRSYLNWYQQKPGKAPKLLIYRLSVLQSGVPSRFSGSGSGTDFTLTISSLQPEDFATYYCQQGYTLPWTFGQGTKVEIK
# B13: NRP1-204 (antibody, IgG2, V domains shown)
# VH: EVQLLESGGGLVQPGGSLRLSCAASGFTFSAFAMSWVRQAPGKGLEWVSGTSGSGGSTYYADSVKGRFTISRDNSKNTLYLQMNSLRAEDTAVYYCARHRAYSYGLDYWGQGTLVTVSS
# VL: DIQMTQSPSSLSASVGDRVTITCRARQSISTYLNWYQQKPGKAPKLLIYSASTLESGVPSRFSGSGSGTDFTLTISSLQPEDFATYYCQQSYRTPWTFGGGTKVEIK
# B14: NRP1-35 (VHH)
# VHH: EVQLVESGGGLVQPGGSLRLSCAASGSIFSFNAMGWFRQAPGKERELVASITPGGNINYADSVKGRFTISADNSKNTAYLQMNSLKPEDTAVYYCARDVEGGWYGLSYGMDVWGQGTLVTVSS
# B15: NRP1-4 (VHH)
# VHH: EVQLVESGGGLVQPGGSLRLSCAASGNIFINNAMGWFRQAPGKERELVAAITSSSGRRWYADSVKGRFTISADNSKNTAYLQMNSLKPEDTAVYYCAARRIVNVEGAYRDWGQGTLVTVSS
# B16: NRP1-134 (antibody, IgG2, V domains shown)
# VH: EVQLLESGGGLVQPGGSLRLSCAASGFTFSNYGVSWVRQAPGKGLEWVSEISPSGKKKYYADSVKGRFTISRDNSKNTLYLQMNSLRAEDTAVYYCAKTTDIQRLNSAFDYWGQGTLVTVSS
# VL: DIQMTQSPSSLSASVGDRVTITCRASQPIAYFLSWYQQKPGKAPKLLIYDASSLHTGVPSRFSGSGSGTDFTLTISSLQPEDFATYYCSSRDKSGSRLVTFGQGTKVEIK
# B17: NRP1-105 (VHH)
# VHH: EVQLVESGGGLVQPGGSLRLSCAASGTTFRINVMGWFRQAPGKERELVAAMRWSSSSTDYADSVKGRFTISADNSKNTAYLQMNSLKPEDTAVYYCAASIEGVSGRWGQGTLVTVSS
# Experiments:
# [1] = target: neuropilin-1 (NRP1), analyte in SPR (UniProt O14786 22-644, limits assumed); test: SPR, Carterra LSA, antibody coupled
# Description: SPR experiments were performed on a Carterra LSA SPR biosensor equipped with a HC30M chip at 25° C. in HBS-TE. Antibodies were diluted to 10 μg/mL and amine-coupled to the sensor chip by EDC/NHS activation, followed by ethanolamine HCl quenching. Increasing concentrations of analyte were flowed over the sensor chip in HBS-TE with 0.5 mg/mL BSA with 5-minute association and 15-minute dissociation. Following each injection cycle the surface was regenerated with 2× 30-second injections of IgG elution buffer (Thermo). Data were analyzed in Carterra's Kinetics Tool software with 1:1 binding model.
# [2] = target: T1, neuropilin-1 (NRP1) on HEK293 cells overexpressing NRP1 (UniProt O14786 22-923, limits assumed); test: flow cytometry, HEK293-NRP1 vs HEK293
# T1 construct: whole, on cells
# [3] = target: neuropilin-1 (NRP1) on HEK293 cells overexpressing NRP1 (UniProt O14786); test: flow cytometry, HEK293-NRP1 vs HEK293
Binder,Kd [1] [nM],koff [1] [s⁻¹],kon [1] [M⁻¹ s⁻¹],100 nM FACS (MFI Ratio) [2],100 nM FACS (MFI Ratio) [3],binding result [1]
B1,10.8,0.0167,1.55e+06,335,,
B2,,,,,1.7,
B3,,,,,2,
B4,,,,2.1,,no binding
B5,,,,1.2,,no binding
B6,290,0.00374,12900,20.8,,
B7,,,,2.3,,no binding
B8,,,,,1.5,
B9,,,,,2,
B10,,,,,1.7,
B11,,,,6.5,,no binding
B12,,,,0.8,,no binding
B13,408000,0.0897,220,9.2,,
B14,,,,2.9,,no binding
B15,183,0.047,256000,30.9,,
B16,,,,1.9,,no binding
B17,,,,,1.8,

# Reference: patent publication US20230265198A1 (TWIST BIOSCIENCE, published 2023)
